The Human Domainome abundance scans (Beltran et al. 2025)

B1: Tesmin, residues 368 to 403; numbered along this chain, Q9Y4I5 (parent)
chain: KGCNCRRSGCLKNYCECYEAQIMCSSICKCIGCKNY

Variants of: B1
Assay: abundance fitness (aPCA) (normalised: wild type 0, dead -1); higher = more abundant; growth selection in yeast, the domain comes from the species named
Settings: Homo sapiens

Abundance fitness, by site and new letter:
S26: L -0.559 | Q 0.091 | G 0.089 | C -0.98 | W -1.91 | D -0.101 | E 0.228
K29: E 0.238 | C -0.048 | V 0.011 | M -0.016 | Q 0.18 | W -0.186 | R 0.034 | I -0.334 | T 0.024 | P -0.091 | H 0.419 | G 0.24 | S 0.051 | N 0.054 | D 0.171
I31: F -0.171 | P 0.047 | R 0.056 | M 0.081 | G 0.15 | K -0.108 | T 0.211 | V 0.125 | E 0.311 | S 0.147 | A 0.309 | L -0.021 | W -0.099 | Q 0.114 | Y -0.322 | N 0.083 | C -0.02
G32: C -0.592 | Q -0.414 | R -0.249 | E -0.033 | D -0.454 | L -0.96 | T -0.655 | A -0.196 | P -0.082 | S -0.087 | V -0.443 | W -0.349
C24: G -0.008 | S -0.201 | M -0.378 | W -0.647 | K 0.262 | E 0.051 | V -0.421 | L -0.402 | A -0.15 | P -0.21 | T -0.294 | D -0.107 | Q -0.072
M23: Q -0.016 | S -0.081 | H -0.198 | W -0.283 | P -0.136 | D 0.152 | E 0.106 | T -0.419 | K -0.057 | R -0.075 | V -0.1 | L -0.462 | G 0.127
K34: P 0.161 | S 0.073 | V 0.152 | W 0.003 | A 0.185 | D 0.295 | C 0.064 | I -0.503 | E 0.182 | L 0.121 | G 0.266 | N 0.06 | T 0.057 | Q -0.107
N35: A 0.141 | P -0.055 | G 0.211 | Y -0.64 | V -0.362 | W -0.233 | F -0.614 | R -0.019 | K -0.44 | L -0.861 | Q 0.114 | C -0.384 | T -0.167 | E 0.11 | S -0.023 | D 0.18
I27: A 0.162 | R 0.085 | E 0.207 | Y -0.431 | N 0.04 | S 0.009 | M -0.014 | D 0.119 | K 0.153 | T 0.159 | Q 0.176 | P 0.118 | V 0.112 | C -1.72 | L -0.089 | W -0.703
C33: D -0.064 | H -0.106 | A -0.011 | L -0.232 | E 0.109 | P -0.014 | T -0.14 | R -0.245 | S -0.121 | K -0.123 | V -0.055 | Q -0.362 | M -0.147 | W -0.449 | G -0.025
C28: A -0.248 | D -0.3 | V -0.42 | Q -0.564 | M -0.411 | L -0.738 | Y -0.973 | W -0.7 | P -0.195 | K -0.377 | E -0.157 | R -0.575 | T -0.14 | G -0.219 | S -0.169
S25: W -0.45 | P -0.521 | V -0.509 | H -0.269 | F -0.711 | L -0.415 | K -0.196 | D -0.334 | G 0.093 | A -0.051 | E -0.315 | T -0.168 | M -0.324 | C -0.393
